Results from patent US12674167B2, “Aptamer specifically binding to cancer stem cells, and use thereof” (HiCELL Tech, priority 2019, dated 2026).
[NapdU] = 5-(N-naphthylcarboxyamide)-2'-deoxyuridine

B1: AT4: 76-mer CD166 aptamer, N = NapdU: TCAGCCGCCAGCCAGTTCCNNCNAGAGNCANGCACGNNANCGGACCNGNCGGCGAANGGACCANANCACCACAGAG (nucleic acid)
DNA: TCAGCCGCCAGCCAGTTCCUUCUAGAGUCAUGCACGUUAUCGGACCUGUCGGCGAAUGGACCAUAUCACCACAGAG
modifications: DNA, [NapdU] at 20, 21, 23, 28, 31, 37, 38, 40, 47, 49, 57, 64, 66, backbone not given here
B2: AT5: 76-mer CD166 aptamer, N = NapdU: TCAGCCGCCAGCCAGTTCANNNGANAAAGCNCCGNNANCGGGCCCCNNGNAGAGNCANGACCAGAGCACCACAGAG (nucleic acid)
DNA: TCAGCCGCCAGCCAGTTCAUUUGAUAAAGCUCCGUUAUCGGGCCCCUUGUAGAGUCAUGACCAGAGCACCACAGAG
modifications: DNA, [NapdU] at 20, 21, 22, 25, 31, 35, 36, 38, 47, 48, 50, 55, 58, backbone not given here

Legend:
[1] = system: ovarian cancer stem cell line A2780-SP cells; test: Affinity of CD166 aptamer to ovarian cancer stem cells by flow cytometry (FACS); type: binding; details: for affinity: as found in Example 8 (FACS)
Method: It was confirmed whether the CD166 aptamer constructed in Example 7 recognized ovarian cancer cells and ovarian cancer stem cells. The following experiment was performed to analyze the interaction between the CD166 aptamer and the ovarian cancer cell line A2780 cells. First, each of the CD166 aptamer (AT-1, AT-2, AT-3, AT-4, AT-5 and AT-6) was dissolved in sterile tertiary water and then heated at 95° C. for 5 minutes. After heating, it was cooled to 25° C. The aptamer was added to the ovarian cancer cell line A2780 cells at a concentration of 500 nM, and then the cells were cultured at room temperature and stained. Thereafter, the cells reacted with the CD166 aptamer were analyzed using a flow cytometer (fluorescence activated cell sorter, FACS), and the results are shown in FIG. 18.
In addition, in the same manner as described above, the ovarian cancer stem cell line A2780-SP cells were reacted with the CD166 aptamer, and then FACS was performed, and the results are shown in FIG. 19.
The affinity of the CD166 aptamer AT-5 and the CD166 FACS antibody (PE Mouse Anti-Human CD166, Cat:559263, BD Pharminggen) as the control to the ovarian cancer stem cell line A2780-SP cells was compared.

[2] = system: CD166 expressing cells isolated from ovarian cancer stem cells; test: Cell adhesion experiment, CD166 expressing ovarian cancer stem cells; type: cell-based; details: aptamer 500 nM, 1 hour, collagen-coated plate, FIG. 21
Method: The effect of the CD166 aptamer on cell adhesion ability was confirmed using the CD166 aptamers AT3, AT4 and AT5. Specifically, CD166 expressing cells were isolated from ovarian cancer stem cells using the CD166 FACS antibody. Cell adhesion experiment of the CD166 aptamer was performed using the isolated cells. First, […] blocked with 20 μg/ml of collagen for 1 hour. After blocking, 0.1% bovine serum albumin (BSA) was added and incubated for 1 hour to limit non-specific binding. The isolated cells were each exposed to the CD166 aptamer (500 nM) for 1 hour and then fixed with 4% formaldehyde. The fixed cells were stained with hoest33342.

[3] = system: patient-derived ovarian cancer stem cells; test: Affinity of CD166 aptamer to patient-derived ovarian cancer stem cells (FACS); type: binding; details: FIG. 36A
[4] = system: focal adhesion signaling pathway in mesenchymal stem cells; test: Focal adhesion signaling pathway by Western blotting, mesenchymal stem cells; type: cell-based; details: aptamer 1 hour, normal stem cells, FIG. 44
Source text: (§1) CD166 expression was inhibited using siRNA in the ovarian cancer stem cell line A2780-SP, and the focal adhesion signaling pathway was confirmed in CD166 expression-inhibited cells through Western blotting. Specifically, in order to inhibit the expression of CD166, the control (si Control) (5′-UUCUCCGAACGUGUCACGUTT-3′ (SEQ ID NO: 23); 5′-ACGUGACACGUUCGGAGAATT-3′ (SEQ ID NO: 24) and si CD166 (5′-AAGCCCGAUGGCUCCCCAGUAUU-3′ (SEQ ID NO: 25); 5′-AAUACUGGGGAGCCAUCGGGCUU-3′ (SEQ ID NO: 26) were constructed. The expression of CD166 was inhibited by reacting the constructed siRNA and the ovarian cancer stem cell line A2780-SP cells, and the cells were cultured after inhibition of expression. After culturing for 48 hours, the cells were collected, and protein expression of FAK, SRC, Paxillin and CD44, which are known as major genes of the focal adhesion signaling pathway, was confirmed through Western blotting. Antibodies against CD166 (ab109215, Abcam), CD44 (5640S, Cell Signaling Technology), p-PAXILLIN (2541S, Cell Signaling Technology), p-SRC (2101S, Cell Signaling Technology), p-FAK (3284S, Cell Signaling Technology), FAK (3285S, Cell Signaling Technology) and GAPDH (MAB374, EMD Milliore Corp, Billerica, MA) were used as primary antibodies. The results of confirming the focal adhesion signaling pathway inhibitory activity in CD166 expression-inhibited cells are shown in FIG. 14.
The mesenchymal stem cells were reacted with the CD166 aptamer AT-5 for 1 hour, respectively, and then the focal adhesion signaling pathway was confirmed in CD166 expression-inhibited cells through Western blotting. The Western blotting was performed in the same manner as in Example 5. In addition, the focal adhesion signaling pathway by CD166 expression inhibition in the mesenchymal stem cells was confirmed by the method of Example 4, and the results are shown in FIG. 44.

[5] = system: focal adhesion signaling pathway in patient-derived ovarian cancer stem cells; test: Focal adhesion signaling pathway by Western blotting, patient-derived ovarian cancer stem cells; type: cell-based; details: aptamer 1 hour, FIG. 39
Source text: as §1
The patient-derived ovarian cancer stem cells were reacted with the CD166 aptamers AT-3 and AT-5 for 1 hour, respectively, and then the focal adhesion signaling pathway was confirmed in CD166 expression-inhibited cells through Western blotting. The Western blotting was performed in the same manner as in Example 5.

[6] = system: CD166-high cells of ovarian cancer stem cell line A2780-SP; test: Tumor formation from aptamer-treated A2780-SP cells inoculated subcutaneously; type: in vivo, nude mice
Method: The effect of the CD166 aptamer AT-5 on tumor formation was confirmed. Specifically, cells in which the expression CD166 is high were isolated from the ovarian cancer stem cell line A2780-SP using a flow cytometer (ARIA3). The isolated cells were reacted with the CD166 aptamer AT-5 for 1 hour, respectively. The cells reacted with the aptamer (1×10^5 cells) were inoculated subcutaneously into nude mice. At this time, the aptamer-untreated cells were inoculated on the left side of nude mice, and the CD166 aptamer AT-5-treated cells were inoculated on the right side of nude mice. After inoculation, the tumor formation size was measured from the 18th day. Nude mice were euthanized on the 38th day of inoculation. Tumors were isolated from nude mice, and finally, the weight and size of the tumors were measured. The results of observation of the isolated tumors are shown in FIG. 26, the results of measuring the size of the tumors are shown in FIG. 27, and the results of measuring the weight of the tumors are shown in FIG. 28, respectively.

| Molecule | affinity [1] | cell adhesion [2] | interaction with patient-derived ovarian cancer stem cells, signal intensity [3] | specificity of binding to ovarian cancer stem cells among the CD166 aptamers ([1]; 500 nM, FACS, FIG. 19) | expression of p-PAXILLIN [4] | expression of p-SRC [4] | expression of the p-FAK Y925 site [4] | expression of p-PAXILLIN [5] | expression of p-SRC [5] | expression of the p-FAK Y925 site [5] | tumor formation ([6]; cells pre-reacted with aptamer 1 hour, 1×10^5 cells subcutaneous, nude mice, FIG. 26) | size of the tumor ([6]; vs aptamer untreated group, day 18 to 38, FIG. 27) | weight of the tumor ([6]; vs control, day 38, FIG. 28) |
| --- | --- | --- | --- | --- | --- | --- | --- | --- | --- | --- | --- | --- | --- |
| B1 | high affinity | reduced | – | – | – | – | – | – | – | – | – | – | – |
| B2 | high affinity | reduced | the signal intensity is high | most specifically binds | not affected | not affected | not affected | inhibited | inhibited | reduced | inhibited | smaller | reduced significantly |
